Reference: patent US20070105152

Legend:
AY(AcK)EV = biological target: T1, AY(AcK)EV
T1 chain: AYKEV

[1] = biological target: T2, Pro-Ile-AcLys-Glu-Gln (SIRT1 library hit, on bead)
T2 chain: PIKEQXXRM

[2] = biological target: T3, Trp-His-AcLys-Phe-Glu (SIRT1 library hit, on bead) (not fully specified)
T3 chain: WHKFEXXRM

Me2RP(AcK)QF = biological target: T4, Me2RP(AcK)QF
T4 chain: RPKQF

AcTGG(AcK)APR = biological target: T5, AcTGG(AcK)APR
T5 chain: TGGKAPR

AcGG(AcK)APRKQ = biological target: T6, AcGG(AcK)APRKQ
T6 chain: GGKAPRKQ

[3] = biological target: T7, Me2Arg-Phe-AcLys-Pro-Glu (SIRT1 library hit, on bead)
T7 chain: RFKPEXXRM

AcTGG(AcK)APRK = biological target: T8, AcTGG(AcK)APRK
T8 chain: TGGKAPRK

AcSTGG(AcK)APR = biological target: T9, AcSTGG(AcK)APR
T9 chain: STGGKAPR

[4] = biological target: T10, Ser-Asp-AcLys-Tyr-His (SIRT1 library hit, on bead)
T10 chain: SDKYHXXRM

LNle(AcK)VG = biological target: T11, LNle(AcK)VG
T11 chain: LLKVG

VQ(AcK)II = biological target: T12, VQ(AcK)II
T12 chain: VQKII

[5] = biological target: T13, His-Trp-AcLys-Thr-His (SIRT1 library hit, on bead)
T13 chain: HWKTHXXRM

AcGG(AcK)AP = biological target: T14, AcGG(AcK)AP
T14 chain: GGKAP

[6] = biological target: T15, Asn-His-AcLys-Leu-Leu (SIRT1 library hit, on bead)
T15 chain: NHKLLXXRM

[7] = biological target: T16, Val-Gln-AcLys-Ile-Ile (SIRT1 library hit, on bead) (not fully specified)
T16 chain: VQKIIXXRM

AcSTGG(AcK)AP = biological target: T17, AcSTGG(AcK)AP
T17 chain: STGGKAP

[8] = biological target: T18, Trp-Trp-AcLys-His-Gly (SIRT1 library hit, on bead) (not fully specified)
T18 chain: WWKHGXXRM

[9] = biological target: T19, Me2Arg-Pro-AcLys-Gln-Phe (SIRT1 library hit, on bead)
T19 chain: RPKQFXXRM

[10] = biological target: T20, Nle-Nle-AcLys-Gln-Gln (SIRT1 library hit, on bead)
T20 chain: MMKQQXXRM

[11] = biological target: T21, Gly-Thr-AcLys-Thr-Gly (SIRT1 library hit, on bead)
T21 chain: GTKTGXXRM

WH(AcK)FQ = biological target: T22, WH(AcK)FQ
T22 chain: WHKFQ

HK(AcK)LM = biological target: T23, HK(AcK)LM
T23 chain: HKKLM

[12] = biological target: T24, Trp-Gly-AcLys-Ser-Pro (SIRT1 library hit, on bead)
T24 chain: WGKSPXXRM

WP(AcK)QQ = biological target: T25, WP(AcK)QQ
T25 chain: WPKQQ

Me2RP(AcK)SI = biological target: T26, Me2RP(AcK)SI
T26 chain: RPKSI

QNle(AcK)GF = biological target: T27, QNle(AcK)GF
T27 chain: QLKGF

[13] = biological target: T28, Trp-Pro-AcLys-Trp-Gln (SIRT1 library hit, on bead) (not fully specified)
T28 chain: WPKWQXXRM

[14] = biological target: T29, Thr-Pro-AcLys-Asn-Ala (SIRT1 library hit, on bead)
T29 chain: TPKNAXXRM

[15] = biological target: T30, Thr-Glu-AcLys-Gln-Glu (SIRT1 library hit, on bead)
T30 chain: TEKQEXXRM

[16] = biological target: T31, Leu-Asn-AcLys-Asp-Gln (SIRT1 library hit, on bead)
T31 chain: LNKDQXXRM

[17] = biological target: T32, Phe-Glu-AcLys-Tyr-Me2Arg (SIRT1 library hit, on bead)
T32 chain: FEKYRXXRM

[18] = biological target: T33, Ile-Phe-AcLys-Thr-Phe (SIRT1 library hit, on bead)
T33 chain: IFKTFXXRM

[19] = biological target: T34, Me2Arg/Pro-Me2Arg/Pro-AcLys-Ser-Ile (SIRT1 library hit, on bead)
T34 chain: RPKSIXXRM

[20] = biological target: T35, His-Me2Arg-AcLys-Nle-Pro (SIRT1 library hit, on bead)
T35 chain: HRKMPXXRM

QP(AcK)QI = biological target: T36, QP(AcK)QI
T36 chain: QPKQI

[21] = biological target: T37, Pro/Trp-Pro/Trp-AcLys-Ile-Thr (SIRT1 library hit, on bead)
T37 chain: WPKITXXRM

[22] = biological target: T38, Ser-Tyr-AcLys-Gln-Trp (SIRT1 library hit, on bead)
T38 chain: SYKQWXXRM

AcGG(AcK)APR = biological target: T39, AcGG(AcK)APR
T39 chain: GGKAPR

[23] = biological target: T40, Asp-Ser-AcLys-Gly-Ala (SIRT1 library hit, on bead)
T40 chain: DSKGAXXRM

[24] = biological target: T41, Me2Arg-Ala-AcLys-Nle-Asp (SIRT1 library hit, on bead)
T41 chain: RAKMDXXRM

[25] = biological target: T42, Gly-Tyr-AcLys-Pro-Thr (SIRT1 library hit, on bead)
T42 chain: GYKPTXXRM

WH(AcK)QQ = biological target: T43, WH(AcK)QQ
T43 chain: WHKQQ

[26] = biological target: T44, Ile-Tyr-AcLys-Asn-Asp (SIRT1 library hit, on bead)
T44 chain: IYKNDXXRM

[27] = biological target: T45, Asn-His-AcLys-Ile-Ile (SIRT1 library hit, on bead)
T45 chain: NHKIIXXRM

[28] = biological target: T46, Gln-Pro-AcLys-Gln-Ile (SIRT1 library hit, on bead)
T46 chain: QPKQIXXRM

EL(AcK)AS = biological target: T47, EL(AcK)AS
T47 chain: ELKAS

[29] = biological target: T48, Pro-Gly-AcLys-Leu-Tyr (SIRT1 library hit, on bead)
T48 chain: PGKLYXXRM

AcGG(AcK)APRK = biological target: T49, AcGG(AcK)APRK
T49 chain: GGKAPRK

[30] = biological target: T50, Me2Arg/Trp-Me2Arg/Trp-AcLys-Ile-Thr (SIRT1 library hit, on bead)
T50 chain: RWKITXXRM

[31] = biological target: T51, Asp-Val-AcLys-Nle-His (SIRT1 library hit, on bead)
T51 chain: DVKMHXXRM

NH(AcK)II = biological target: T52, NH(AcK)II
T52 chain: NHKII

[32] = biological target: T53, Trp-His-AcLys-Phe-Gln (SIRT1 library hit, on bead) (not fully specified)
T53 chain: WHKFQXXRM

AcTGG(AcK)AP = biological target: T54, AcTGG(AcK)AP
T54 chain: TGGKAP

[33] = biological target: T55, Ala-Val-AcLys-Phe-Nle (SIRT1 library hit, on bead)
T55 chain: AVKFMXXRM

AcKSTGG(AcK)AP = biological target: T56, AcKSTGG(AcK)AP
T56 chain: KSTGGKAP

B1: human NAD+-dependent deacetylase SIRT1 (protein)
chain: MADEAALALQPGGSPSAAGADREAASSPAGEPLRKRPRRDGPGLERSPGEPGGAAPEREVPAAARGCPGAAAAALWREAEAEAAAAGGEQEAQATAAAGEGDNGPGLQGPSREPPLADNLYDEDDDDEGEEEEEAAAAAIGYRDNLLFGDEIITNGFHSCESDEEDRASHASSSDWTPRPRIGPYTFVQQHLMIGTDPRTILKDLLPETIPPPELDDMTLWQIVINILSEPPKRKKRKDINTIEDAVKLLQECKKIIVLTGAGVSVSCGIPDFRSRDGIYARLAVDFPDLPDPQAMFDIEYFRKDPRPFFKFAKEIYPGQFQPSLCHKFIALSDKEGKLLRNYTQNIDTLEQVAGIQRIIQCHGSFATASCLICKYKVDCEAVRGDIFNQVVPRCPRCPADEPLAIMKPEIVFFGENLPEQFHRAMKYDKDEVDLLIVIGSSLKVRPVALIPSSIPHEVPQILINREPLPHLHFDVELLGDCDVIINELCHRLGGEYAKLCCNPVKLSEITEKPPRTQKELAYLSELPPTPLHVSEDSSSPERTSPPDSSVIVTLLDQAAKSNDDLDVSESKGCMEEKPQEVQTSRNVESIAEQMENPDLKNVGSSTGEKNERTSVAGTVRKCWPNRVAKEQISRRLDGNQYLFLPPNRYIFHGAEVYSDSEDDVLSSSSCGSNSDSGTCQSPSLEEPMEDESEIEEFYNGLEDEPDVPERAGGAGFGTDGDDQEAINEAISVKQEVTDMNYPSNKS
AY(AcK)EV
  kcat/Km: 5320 M⁻¹ s⁻¹
[1]
  on-bead deacetylation, biotin and streptavidin quantum dot fluorescence, among the 45 brightest beads: hits from the SIRT1 combinatorial library screen
[2]
  on-bead deacetylation, biotin and streptavidin quantum dot fluorescence, among the 45 brightest beads: hits from the SIRT1 combinatorial library screen
Me2RP(AcK)QF
  kcat/Km: 0.0147 M⁻¹ s⁻¹
AcTGG(AcK)APR
  Relative kcat/Km (relative to AcTGG(AcK)APRK = 1): 0.64
AcGG(AcK)APRKQ
  Relative kcat/Km (relative to AcTGG(AcK)APRK = 1): 0.8
[3]
  on-bead deacetylation, biotin and streptavidin quantum dot fluorescence, among the 45 brightest beads: hits from the SIRT1 combinatorial library screen
AcTGG(AcK)APRK
  Relative kcat/Km (relative to AcTGG(AcK)APRK = 1): 1
AcSTGG(AcK)APR
  Relative kcat/Km (relative to AcTGG(AcK)APRK = 1): 0.67
[4]
  on-bead deacetylation, biotin and streptavidin quantum dot fluorescence, among the 45 brightest beads: hits from the SIRT1 combinatorial library screen
LNle(AcK)VG
  kcat/Km: 0.00161 M⁻¹ s⁻¹
VQ(AcK)II
  kcat/Km: ≥ 2470 M⁻¹ s⁻¹
[5]
  on-bead deacetylation, biotin and streptavidin quantum dot fluorescence, among the 45 brightest beads: hits from the SIRT1 combinatorial library screen
AcGG(AcK)AP
  Relative kcat/Km (relative to AcTGG(AcK)APRK = 1): 1.72
[6]
  on-bead deacetylation, biotin and streptavidin quantum dot fluorescence, among the 45 brightest beads: hits from the SIRT1 combinatorial library screen
[7]
  on-bead deacetylation, biotin and streptavidin quantum dot fluorescence, among the 45 brightest beads: hits from the SIRT1 combinatorial library screen
AcSTGG(AcK)AP
  Relative kcat/Km (relative to AcTGG(AcK)APRK = 1): 1.61
[8]
  on-bead deacetylation, biotin and streptavidin quantum dot fluorescence, among the 45 brightest beads: hits from the SIRT1 combinatorial library screen
[9]
  on-bead deacetylation, biotin and streptavidin quantum dot fluorescence, among the 45 brightest beads: hits from the SIRT1 combinatorial library screen
[10]
  on-bead deacetylation, biotin and streptavidin quantum dot fluorescence, among the 45 brightest beads: hits from the SIRT1 combinatorial library screen
[11]
  on-bead deacetylation, biotin and streptavidin quantum dot fluorescence, among the 45 brightest beads: hits from the SIRT1 combinatorial library screen
WH(AcK)FQ
  kcat/Km: 3290 M⁻¹ s⁻¹
HK(AcK)LM
  kcat/Km: 3110 M⁻¹ s⁻¹
[12]
  on-bead deacetylation, biotin and streptavidin quantum dot fluorescence, among the 45 brightest beads: hits from the SIRT1 combinatorial library screen
WP(AcK)QQ
  kcat/Km: 0.00154 M⁻¹ s⁻¹
Me2RP(AcK)SI
  kcat/Km: 8360 M⁻¹ s⁻¹
QNle(AcK)GF
  kcat/Km: 0.00237 M⁻¹ s⁻¹
[13]
  on-bead deacetylation, biotin and streptavidin quantum dot fluorescence, among the 45 brightest beads: hits from the SIRT1 combinatorial library screen
[14]
  on-bead deacetylation, biotin and streptavidin quantum dot fluorescence, among the 45 brightest beads: hits from the SIRT1 combinatorial library screen
[15]
  on-bead deacetylation, biotin and streptavidin quantum dot fluorescence, among the 45 brightest beads: hits from the SIRT1 combinatorial library screen
[16]
  on-bead deacetylation, biotin and streptavidin quantum dot fluorescence, among the 45 brightest beads: hits from the SIRT1 combinatorial library screen
[17]
  on-bead deacetylation, biotin and streptavidin quantum dot fluorescence, among the 45 brightest beads: hits from the SIRT1 combinatorial library screen
[18]
  on-bead deacetylation, biotin and streptavidin quantum dot fluorescence, among the 45 brightest beads: hits from the SIRT1 combinatorial library screen
[19]
  on-bead deacetylation, biotin and streptavidin quantum dot fluorescence, among the 45 brightest beads: hits from the SIRT1 combinatorial library screen
[20]
  on-bead deacetylation, biotin and streptavidin quantum dot fluorescence, among the 45 brightest beads: hits from the SIRT1 combinatorial library screen
QP(AcK)QI
  fold preference in catalytic activity over WP(AcK)QQ: QP(AcK)QI is favored over WP(AcK)QQ by 18-fold
  kcat/Km: 0.0272 M⁻¹ s⁻¹
[21]
  on-bead deacetylation, biotin and streptavidin quantum dot fluorescence, among the 45 brightest beads: hits from the SIRT1 combinatorial library screen
[22]
  on-bead deacetylation, biotin and streptavidin quantum dot fluorescence, among the 45 brightest beads: hits from the SIRT1 combinatorial library screen
AcGG(AcK)APR
  Relative kcat/Km (relative to AcTGG(AcK)APRK = 1): 0.68
[23]
  on-bead deacetylation, biotin and streptavidin quantum dot fluorescence, among the 45 brightest beads: hits from the SIRT1 combinatorial library screen
[24]
  on-bead deacetylation, biotin and streptavidin quantum dot fluorescence, among the 45 brightest beads: hits from the SIRT1 combinatorial library screen
[25]
  on-bead deacetylation, biotin and streptavidin quantum dot fluorescence, among the 45 brightest beads: hits from the SIRT1 combinatorial library screen
WH(AcK)QQ
  fold difference in catalytic activity against WP(AcK)QQ: 7 fold
  kcat/Km: 0.00723 M⁻¹ s⁻¹
[26]
  on-bead deacetylation, biotin and streptavidin quantum dot fluorescence, among the 45 brightest beads: hits from the SIRT1 combinatorial library screen
[27]
  on-bead deacetylation, biotin and streptavidin quantum dot fluorescence, among the 45 brightest beads: hits from the SIRT1 combinatorial library screen
[28]
  on-bead deacetylation, biotin and streptavidin quantum dot fluorescence, among the 45 brightest beads: hits from the SIRT1 combinatorial library screen
EL(AcK)AS
  kcat/Km: 0.00139 M⁻¹ s⁻¹
[29]
  on-bead deacetylation, biotin and streptavidin quantum dot fluorescence, among the 45 brightest beads: hits from the SIRT1 combinatorial library screen
AcGG(AcK)APRK
  Relative kcat/Km (relative to AcTGG(AcK)APRK = 1): 1.01
[30]
  on-bead deacetylation, biotin and streptavidin quantum dot fluorescence, among the 45 brightest beads: hits from the SIRT1 combinatorial library screen
[31]
  on-bead deacetylation, biotin and streptavidin quantum dot fluorescence, among the 45 brightest beads: hits from the SIRT1 combinatorial library screen
NH(AcK)II
  kcat/Km: 3630 M⁻¹ s⁻¹
[32]
  on-bead deacetylation, biotin and streptavidin quantum dot fluorescence, among the 45 brightest beads: hits from the SIRT1 combinatorial library screen
AcTGG(AcK)AP
  Relative kcat/Km (relative to AcTGG(AcK)APRK = 1): 0.54
[33]
  on-bead deacetylation, biotin and streptavidin quantum dot fluorescence, among the 45 brightest beads: hits from the SIRT1 combinatorial library screen
AcKSTGG(AcK)AP
  Relative kcat/Km (relative to AcTGG(AcK)APRK = 1): 0.71
